Target: acyl-carrier-protein synthase (AcpS) from Staphylococcus aureus (Staphylococcus aureus)
Assay: crystal structure

Q: With “acyl-carrier-protein synthase (AcpS) from Staphylococcus aureus (enzyme)” as the substance, how does the stoichiometry N read?
A: 3
